Positions count from the first letter of the chain named.
B1: AS01299 sdAb (VHH)
VHH: QVQLVESGGGLVQPGGSLRLSCAASGSIFSIATMAWYRQAPGKQRELVAGITRSGSTNYRDSVKGRFTISRDNAKNTMYLQMNSLKPEDTAVYYCTDYSSRYYHDYWGQGTQVTVSS
notes: Llama sdAb made in E. coli with a C-terminal 6xHis tag; also called sdAb AS01299
B2: AS01274 sdAb (VHH)
VHH: QVQLVESGGGLVQPGGSLRLSCVASGSIASIATMAWYRQAPGQQRELVAGITRGGSTKYADSVKGRFTISRDNAKNTLYLQMNSLKPDDTAVYYCTDYSRKYYQDYWGQGTQVTVSS
notes: Llama sdAb made in E. coli with a C-terminal 6xHis tag; also called sdAb AS01274
B3: AS01274VHa (VHH)
VHH: B2 VHH with Q1E, V23A, Q43K, Q44G, R45L, A74S, K86R, P87A, D88E, Q112L
notes: Humanized variant of AS01274, C-terminal 6xHis tag
B4: AS01274VHa-A49 (VHH)
VHH: EVQLVESGGGLVQPGGSLRLSCAASGSIASIATMAWYRQAPGKGLELVSGITRGGSTKYADSVKGRFTISRDNSKNTLYLQMNSLRAEDTAVYYCTDYSRKYYQDYWGQGTLVTVSS
notes: as for B3
B5: AS01299VH4 (VHH)
VHH: B4 VHH with A29F, G54S, K58N, A60R, R100S, K101R, Q104H
notes: Humanized variant of AS01299, C-terminal 6xHis tag
B6: AS01299VH3a-L47 (VHH)
VHH: B1 VHH with Q1E, Q44G, R45L, L47W, A74S, K86R, P87A, Q112L
notes: Humanized variant of AS01299, C-terminal 6xHis tag; also called AS01299VH3a-L47-2
B7: AS01299VH4-L47 (VHH)
VHH: B4 VHH with A29F, L47W, G54S, K58N, A60R, R100S, K101R, Q104H
notes: Humanized variant of AS01299, C-terminal 6xHis tag; also called AS01299VH4-L47-2
B8: AS01299VH3a-A49 (VHH)
VHH: B4 VHH with A29F, G54S, K58N, A60R, L78M, R100S, K101R, Q104H
notes: as for B5
B9: AS01299VH3a (VHH)
VHH: B1 VHH with Q1E, Q44G, R45L, A74S, K86R, P87A, Q112L
notes: as for B5
B10: AS01299VH3a-M78 (VHH)
VHH: B4 VHH with A29F, S49A, G54S, K58N, A60R, R100S, K101R, Q104H
notes: as for B5

The binders below were run against T1, human transferrin (human, UniProt P02787 20-698) (assay: SPR, BIAcore T200, sdAb amine-coupled to CM5 chip, transferrin injected).
T1 sequence (P02787 20-698 limits assumed): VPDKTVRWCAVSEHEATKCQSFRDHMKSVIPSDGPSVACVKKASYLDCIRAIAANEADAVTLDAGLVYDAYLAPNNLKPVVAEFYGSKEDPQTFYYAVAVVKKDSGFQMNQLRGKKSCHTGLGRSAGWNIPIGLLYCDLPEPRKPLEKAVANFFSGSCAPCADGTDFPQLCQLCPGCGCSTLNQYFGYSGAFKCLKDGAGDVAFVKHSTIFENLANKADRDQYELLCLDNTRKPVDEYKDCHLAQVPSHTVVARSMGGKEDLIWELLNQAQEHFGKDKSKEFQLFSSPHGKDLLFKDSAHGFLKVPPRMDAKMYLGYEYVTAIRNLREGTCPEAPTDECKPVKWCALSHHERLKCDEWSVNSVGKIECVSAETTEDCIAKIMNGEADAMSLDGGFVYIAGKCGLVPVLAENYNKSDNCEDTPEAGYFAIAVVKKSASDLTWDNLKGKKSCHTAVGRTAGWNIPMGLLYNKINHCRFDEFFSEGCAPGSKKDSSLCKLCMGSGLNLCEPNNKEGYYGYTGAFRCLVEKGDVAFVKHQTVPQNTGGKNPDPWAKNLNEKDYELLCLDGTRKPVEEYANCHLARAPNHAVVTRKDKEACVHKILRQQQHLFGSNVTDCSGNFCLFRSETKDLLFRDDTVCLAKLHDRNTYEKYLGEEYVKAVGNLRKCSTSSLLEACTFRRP
Procedure: (§1) Experiments were performed using a BIAcore T200 optical sensor platform and research grade CM5 sensor chips (GE Healthcare). AS01274 sdAb and AS01299 sdAb were immobilized on the sensor chip surface by standard amine coupling. All experiments were carried out in HEPES buffer [10 mM HEPES (pH 7.4), 150 mM NaCl, 3.4 mM EDTA, 0.005% Tween 20] at 25° C. Human Transferrin and Cynomolgus monkey Transferrin were injected at serial dilutions ranging from 3.9 nM to 2000 nM at a flow rate of 30 μl/min unless otherwise indicated. The amount of bound analyte after subtraction from the blank control surface is shown as relative response units (RU). The double referenced sensorgrams from each injection series were analyzed for binding kinetics using BIA evaluation software (GE Healthcare). Dissociation constants (KDs) were calculated from the on- and off-rates (kₒₙ and koff, respectively), as determined by global fitting of the experimental data to a 1:1 Langmuir binding model (Chi²<1).

Row | Binder | Kd [nM] | koff [s⁻¹] | kon [M⁻¹ s⁻¹]
1 | B1 | 140 | 0.0031 | 22000
2 | B2 | 16 | 0.00019 | 12000

What follows are binders tested against T2, cynomolgus monkey transferrin (cynomolgus monkey, UniProt A0A2K5UXZ0 20-695) in the same assay as above.
T2 construct: also called cynomolgus transferrin
Procedure: as §1

Row | Binder | Kd [nM] | koff [s⁻¹] | kon [M⁻¹ s⁻¹]
3 | B1 | 8.8 | 0.00046 | 52000
4 | B2 | 1.6 | 4.4e-05 | 27000

What follows are binders tested against T2, cynomolgus monkey transferrin (assay: SPR, BIAcore T200, cynomolgus monkey transferrin as ligand, sdAb as analyte).

Row | Binder | Kd [nM] | koff [s⁻¹] | kon [M⁻¹ s⁻¹]
5 | B3 | 0.011 | 8.1e-05 | 7.3e+06
6 | B4 | 0.009 | 7.9e-05 | 8.7e+06
7 | B1 | 0.065 | 0.00056 | 8.6e+06
8 | B5 | 0.054 | 0.0003 | 5.7e+06
9 | B6 | 0.053 | 0.00048 | 8.9e+06
10 | B7 | 0.071 | 0.00066 | 9.3e+06
11 | B8 | 0.1 | 0.00027 | 2.6e+06
12 | B9 | 0.057 | 0.00028 | 4.9e+06
13 | B2 | 0.0067 | 8.9e-05 | 1.3e+07
14 | B10 | 0.058 | 0.0003 | 5.2e+06

Each binder was assayed against T1, human transferrin (assay: SPR, BIAcore T200, human transferrin amine-coupled to CM5 chip, sdAb injected).
Procedure: as §1, with “Healthcare; Little Chalfont, United Kingdom). Human transferrin was” for “Healthcare). AS01274 sdAb and AS01299 sdAb were”, “Human Transferrin and Cynomolgus monkey Transferrin were injected at serial dilutions ranging from 3.9 nM to 2000 nM at a flow rate of 30 μl/min unless otherwise indicated.” left out

Row | Binder | Kd [nM] | koff [s⁻¹] | kon [M⁻¹ s⁻¹]
15 | B3 | 0.13 | 0.0002 | 1.5e+06
16 | B4 | 0.11 | 0.00016 | 1.5e+06
17 | B1 | 0.98 | 0.0022 | 2.2e+06
18 | B5 | 1.1 | 0.0011 | 1e+06
19 | B6 | 3.7 | 0.0025 | 680000
20 | B7 | 6 | 0.0035 | 590000
21 | B8 | 2.4 | 0.001 | 420000
22 | B9 | 1.3 | 0.0011 | 810000
23 | B2 | 0.09 | 0.0003 | 3.3e+06
24 | B10 | 1.1 | 0.0012 | 1e+06

— patent US20220033481A1 (NANJING LEGEND BIOTECH, published 2022)
